B1: Protein PTHB1 (Homo sapiens), Q3SYG4 (parent)
chain: MSLFKARDWWSTILGDKEEFDQGCLCLANVDNSGNGQDKIIVGSFMGYLRIFSPHPAKTGDGAQAEDLLLEVDLRDPVLQVEVGKFVSGTEMLHLAVLHSRKLCVYSVSGTLGNVEHGNQCQMKLMYEHNLQRTACNMTYGSFGGVKGRDLICIQSMDGMLMVFEQESYAFGRFLPGFLLPGPLAYSSRTDSFLTVSSCQQVESYKYQVLAFATDADKRQETEQQKLGSGKRLVVDWTLNIGEQALDICIVSFNQSASSVFVLGERNFFCLKDNGQIRFMKKLDWSPSCFLPYCSVSEGTINTLIGNHNNMLHIYQDVTLKWATQLPHIPVAVRVGCLHDLKGVIVTLSDDGHLQCSYLGTDPSLFQAPNVQSRELNYDELDVEMKELQKIIKDVNKSQGVWPMTEREDDLNVSVVVSPNFDSVSQATDVEVGTDLVPSVTVKVTLQNRVILQKAKLSVYVQPPLELTCDQFTFEFMTPDLTRTVSFSVYLKRSYTPSELEGNAVVSYSRPTDRNPDGIPRVIQCKFRLPLKLICLPGQPSKTASHKITIDTNKSPVSLLSLFPGFASQSDDDQVNVMGFHFLGGARITVLASKTSQRYRIQSEQFEDLWLITNELILRLQEYFEKQGVKDFACSFSGSIPLQEYFELIDHHFELRINGEKLEELLSERAVQFRAIQRRLLARFKDKTPAPLQHLDTLLDGTYKQVIALADAVEENQGNLFQSFTRLKSATHLVILLIALWQKLSADQVAILEAAFLPLQEDTQELGWEETVDAAISHLLKTCLSKSSKEQALNLNSQLNIPKDTSQLKKHITLLCDRLSKGGRLCLSTDAAAPQTMVMPGGCTTIPESDLEERSVEQDSTELFTNHRHLTAETPRPEVSPLQGVSE
partner: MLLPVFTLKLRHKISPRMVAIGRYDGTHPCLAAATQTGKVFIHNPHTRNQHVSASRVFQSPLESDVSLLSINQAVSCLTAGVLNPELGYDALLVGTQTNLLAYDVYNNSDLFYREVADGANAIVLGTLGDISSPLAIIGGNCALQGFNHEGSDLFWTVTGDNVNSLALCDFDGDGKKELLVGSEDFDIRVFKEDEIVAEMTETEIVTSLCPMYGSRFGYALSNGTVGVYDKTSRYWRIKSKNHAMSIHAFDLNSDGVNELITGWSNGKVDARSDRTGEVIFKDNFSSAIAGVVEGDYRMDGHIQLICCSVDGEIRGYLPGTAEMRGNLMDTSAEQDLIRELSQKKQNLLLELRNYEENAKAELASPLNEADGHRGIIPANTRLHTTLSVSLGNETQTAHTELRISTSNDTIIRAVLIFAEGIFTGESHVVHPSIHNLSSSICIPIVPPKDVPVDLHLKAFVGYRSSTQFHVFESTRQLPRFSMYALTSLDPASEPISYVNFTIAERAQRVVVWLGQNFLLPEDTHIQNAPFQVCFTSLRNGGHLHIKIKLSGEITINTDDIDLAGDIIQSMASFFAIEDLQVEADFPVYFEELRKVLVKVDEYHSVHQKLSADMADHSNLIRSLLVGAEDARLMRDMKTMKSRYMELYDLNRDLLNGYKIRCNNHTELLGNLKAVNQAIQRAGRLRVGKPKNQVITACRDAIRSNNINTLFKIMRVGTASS
B2: Protein PTHB1 (Homo sapiens), Q3SYG4 (parent)
chain: B1 chain
partner: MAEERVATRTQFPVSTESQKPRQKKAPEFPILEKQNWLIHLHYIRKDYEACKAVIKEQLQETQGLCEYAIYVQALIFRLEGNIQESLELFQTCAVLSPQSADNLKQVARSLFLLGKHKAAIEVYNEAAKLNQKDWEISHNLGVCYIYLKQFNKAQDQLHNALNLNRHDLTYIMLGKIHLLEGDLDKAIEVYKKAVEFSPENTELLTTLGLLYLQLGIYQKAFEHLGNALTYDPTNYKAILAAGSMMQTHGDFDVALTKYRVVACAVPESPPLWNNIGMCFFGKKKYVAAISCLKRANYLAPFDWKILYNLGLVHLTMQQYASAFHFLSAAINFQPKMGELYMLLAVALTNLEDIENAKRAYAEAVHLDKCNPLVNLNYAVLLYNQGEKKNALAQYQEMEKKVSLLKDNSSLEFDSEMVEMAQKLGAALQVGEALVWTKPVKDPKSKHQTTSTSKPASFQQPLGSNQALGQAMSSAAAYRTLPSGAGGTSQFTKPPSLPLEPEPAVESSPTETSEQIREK

Variants of: B1
Conditions: with bbs2_human BBS2, Q9BXC9

Row | Variant | effect of a mutation on the interaction
1 | P877K | with no effect
2 | I846K | with no effect
3 | I846E | with no effect
4 | I846A | with no effect
5 | C843A | with no effect
6 | C843K | with no effect
7 | C843E | with no effect
8 | S855E | with no effect
9 | S855A | with no effect
10 | S855K | with no effect
11 | P840A | disrupting interaction strength
12 | P840E | with no effect
13 | P840K | with no effect
14 | D859K | with no effect
15 | D859E | with no effect
16 | D859A | with no effect
17 | E848A | with no effect
18 | E848K | with no effect
19 | L870A | with no effect
20 | L870K | with no effect
21 | L870E | with no effect
22 | E873K | with no effect

Row | Variant | effect of a mutation on the interaction
23 | E873A | with no effect
24 | V879E | with no effect
25 | V879A | with no effect
26 | V879K | with no effect
27 | R854E | with no effect
28 | R854A | with no effect
29 | R854K | with no effect
30 | E853K | with no effect
31 | E853A | with no effect
32 | P847A | with no effect
33 | P847E | with no effect
34 | P847K | with no effect
35 | P847T | disrupting interaction strength
36 | T871K | with no effect
37 | T871E | with no effect
38 | T871A | with no effect
39 | T844K | with no effect
40 | T844E | with no effect
41 | T844A | with no effect
42 | F864E | with no effect
43 | F864K | with no effect
44 | F864A | with no effect

Variants of: B2
Conditions: with bbs4_human BBS4, Q96RK4

Row | Variant | effect of a mutation on the interaction
45 | S787A | with no effect
46 | G502R | disrupting interaction strength
47 | L814E | with no effect
48 | T688K | with no effect
49 | L616A | with no effect
50 | V415A | with no effect
51 | F684E | with no effect
52 | D850A | with no effect
53 | I751A | with no effect
54 | F527E | with no effect
55 | N796K | with no effect
56 | V772E | disrupting interaction strength
57 | L642E | with no effect
58 | K810A | with no effect
59 | L779A | with no effect
60 | I601E | with no effect
61 | H867E | with no effect
62 | L467E | with no effect
63 | S545K | with no effect
64 | E654A | disrupting interaction strength
65 | L655A | with no effect
66 | D747K | with no effect
67 | L799K | with no effect
68 | D631K | with no effect

Row | Variant | effect of a mutation on the interaction
69 | K626E | with no effect
70 | I588A | with no effect
71 | S423E | with no effect
72 | Q453K | with no effect
73 | T434E | with no effect
74 | S570E | with no effect
75 | Y508E | with no effect
76 | V432A | with no effect
77 | H652E | with no effect
78 | T595E | with no effect
79 | E501K | with no effect
80 | E501A | with no effect
81 | N420A | with no effect
82 | S880A | with no effect
83 | P530L | disrupting interaction strength
84 | A544E | with no effect
85 | L699E | with no effect
86 | Q748E | with no effect
87 | Q748K | disrupting interaction strength
88 | G841K | with no effect
89 | T844A | with no effect
90 | F582K | with no effect
91 | K685A | with no effect
92 | H651A | with no effect

Reference: IntAct's records for PubMed 29039417
